Positions count from the first letter of the chain named. Numbers in names are those of the source.
T1: rh wild-type Bri2 BRICHOS-mCherry (human, UniProt Q9Y287 113-231)
T1 construct: Bri2 BRICHOS domain, human (rh = recombinant human), Bri2 residues 113-231; Used as isolated oligomers; also called rh Bri2 BRICHOS-mCherry; source: E. coli SHuffle T7, purified (same protocol as R221E; oligomers isolated on Superdex 200 PG); not shown: His6, N-terminal, cleaved; NT*, N-terminal, cleaved; mCherry, C-terminal, kept
T1 sequence (looked up): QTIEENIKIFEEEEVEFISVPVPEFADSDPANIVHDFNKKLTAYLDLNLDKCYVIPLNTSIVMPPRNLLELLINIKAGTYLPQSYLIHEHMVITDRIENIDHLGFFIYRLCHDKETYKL

B1: rh wild-type Bri2 BRICHOS (domain or fragment, human, UniProt Q9Y287 113-231, looked up)
chain: T1 sequence (looked up)
notes: Bri2 BRICHOS domain, human (rh = recombinant human), Bri2 residues 113-231; also called rh wt Bri2 BRICHOS; wild-type monomers; source: E. coli SHuffle T7, purified (Ni-NTA, thrombin cleavage, second Ni-NTA, SEC); not shown: His6, N-terminal, cleaved; NT*, N-terminal, cleaved
B2: rh Bri2 BRICHOS R221E monomer (domain or fragment, human, UniProt Q9Y287 113-231, looked up)
chain: T1 sequence (looked up) with R109E
modifications: intramolecular disulfide bond between the two conserved Cys (monomer, by ESI-MS)
notes: Bri2 BRICHOS domain, human (rh = recombinant human), Bri2 residues 113-231, with R221E; Used here for the isolated monomer and as the subunit in the rows on self-association (oligomers, dimers); Measured mass 14,050.2 Da; also called rh Bri2 R221E monomer; source: E. coli SHuffle T7, purified (Ni-NTA, thrombin cleavage, second Ni-NTA, SEC); not shown: His6, N-terminal, cleaved; NT*, N-terminal, …

Tests used:
[1] = biological target: the molecule itself; assay: SEC; isolated monomers at low concentration (~7.5 µM) and high concentrations (54 µM for R221E, 30 µM for wt)
[2] = biological target: T1, rh wild-type Bri2 BRICHOS-mCherry; assay: not stated; coincubation of R221E monomers with Bri2 BRICHOS-mCherry oligomers at rising molar ratios; release of wild-type monomers followed (Supplementary Fig. 5); settings: both partners purified

Row | Binder | stoichiometry N [1] | molar ratio of mutant to wild-type oligomers at which the release of wild-type monomers saturates [2] [mol/mol]
1 | B1 | 2 | 
2 | B2 |  | ~2

Source: PMC6971075, “Augmentation of Bri2 molecular chaperone activity against amyloid-β reduces neurotoxicity in mouse hippocampus in vitro” (Communications Biology, 2020)
